Assay results from patent US20090203610A1, “METHODS OF TREATING OBESITY OR DIABETES USING NT-4/5” (RINAT NEUROSCIENCE CORPORATION, priority 2004, published 2009).
Residue numbers refer to the chain shown, from its start. In names and notes the source's numbering stands.

What was measured:
human TrkB = target: T1, human TrkB (Homo sapiens, UniProt Q16620); assay: Receptor tyrosine phosphorylation (KIRA) in TrkB expressing cell line; type: cell-based; conditions: for functional binding with TrkB in the KIRA assay: single cysteine mutants
T1 construct: expressed in transfected cells
Source text: Method of making pegylated NT-4/5 (S50C): The native form of NT-4/5 used in this study was produced according to the method described in U.S. Pat. No. 6,184,360. A site-directed pegylated NT-4/5 was also produced. The structure of NT-4/5 in complex with domain 5 of TrkB was examined to find amino acid side chains that would be surface available and unlikely to interfere with natural disulfide bonds and also unlikely to interfere in either the interactions between the monomer subunits of NT-4/5 or the TrkB domain 5 to create a PEG attaching site. […] […] Mutant proteins were expressed in E. coli, solubilized, extracted, purified and refolded as the native NT-4/5. To pegylate the refolded NT4-S50C, NT4-Q105C, and NT-4-E67C, first a mild reduction with 0.1 mM DTT (dithiothreitol) was performed. Excess DTT was removed by dialysis against 50 mM sodium acetate at pH 6, then a 5 molar excess of mPEG-maleimide (M. W. of 10,000 Da, SunBio, Inc., South Korea) was incubated with the protein at 37° C. for several days with gentle agitation. Pegylated protein, non-pegylated protein and unreacted PEG were separated via ion exchange or size exclusion chromatography.
(§1) Assays of TrkB specific activation by pegylated NT-4/5: Stable cell lines expressing human TrkA, TrkB or TrkC were used to determine the functional activity, i.e. receptor phosphorylation, of NT-4/5 and pegylated NT-4/5 as previously described (Sadick et al. Experimental Cell Research 234: 354-361, 1997).
as §1, with “and different forms of” for “and”

[1] = system: NONcNZO-10 polygenic obese mice; assay: Non-fasting blood triglyceride level in NONcNZO-10 mice (Example 4, Table 18); type: in vivo; set-up: non-fasting blood triglyceride level: unit not given here; conditions: NONcNZO-10 mice, mean
Source text: (§2) Test animals: 40 male NONcNZO-10 polygenic obese mice obtained from Jackson Laboratory at 10 weeks of age weighing in the range of 26-32 g were used in this study.
(§3) Administration of NT-4/5: NT-4/5 was produced in E. coli as descried in U.S. Pat. No. 6,184,360. The mice were divided into 6 groups of equivalent body weight and baseline blood glucose distribution (6-7 mice per group). […] A “paired-fed” control group received daily injection of vehicle, but were only fed with the same amount of food the 3 mg/kg group consumed the previous day. On the day when the treatment started (day 1), a baseline blood samples were collected for measuring glucose and triglyceride. Triglyceride level was measured on day 10. At the end of the study (day 12), a terminal blood sample was collected to determine glucose, triglyceride, electrolytes (Na, K, Cl), testoterone, corticosterone, thyroid hormone (total T4) and thyroid stimulating hormone (TSH) levels. Electrolytes, free testosterone, T4 and TSH levels of serum samples were measured by AniLytics (Gaithesburg, M.D) according to the standard protocols employed by the vendor. Other analytes were measured as described above. Body weight, food intake were monitored 5 days per week through out the entire study. Daily water intake was measured from day 5 through day 7.

[2] = system: NONcNZO-10 polygenic obese mice; assay: Body weight in NONcNZO-10 mice (Example 4, Table 19); type: in vivo; set-up: body weight: unit not given here; conditions: NONcNZO-10 mice, mean
Source text: as §2, §3

[3] = system: NONcNZO-10 polygenic obese mice; assay: Food intake in NONcNZO-10 mice (Example 4, Table 20); type: in vivo; set-up: unit not given here; conditions: NONcNZO-10 mice, mean
Source text: as §2, §3

T1 sequence (Q16620 32-822): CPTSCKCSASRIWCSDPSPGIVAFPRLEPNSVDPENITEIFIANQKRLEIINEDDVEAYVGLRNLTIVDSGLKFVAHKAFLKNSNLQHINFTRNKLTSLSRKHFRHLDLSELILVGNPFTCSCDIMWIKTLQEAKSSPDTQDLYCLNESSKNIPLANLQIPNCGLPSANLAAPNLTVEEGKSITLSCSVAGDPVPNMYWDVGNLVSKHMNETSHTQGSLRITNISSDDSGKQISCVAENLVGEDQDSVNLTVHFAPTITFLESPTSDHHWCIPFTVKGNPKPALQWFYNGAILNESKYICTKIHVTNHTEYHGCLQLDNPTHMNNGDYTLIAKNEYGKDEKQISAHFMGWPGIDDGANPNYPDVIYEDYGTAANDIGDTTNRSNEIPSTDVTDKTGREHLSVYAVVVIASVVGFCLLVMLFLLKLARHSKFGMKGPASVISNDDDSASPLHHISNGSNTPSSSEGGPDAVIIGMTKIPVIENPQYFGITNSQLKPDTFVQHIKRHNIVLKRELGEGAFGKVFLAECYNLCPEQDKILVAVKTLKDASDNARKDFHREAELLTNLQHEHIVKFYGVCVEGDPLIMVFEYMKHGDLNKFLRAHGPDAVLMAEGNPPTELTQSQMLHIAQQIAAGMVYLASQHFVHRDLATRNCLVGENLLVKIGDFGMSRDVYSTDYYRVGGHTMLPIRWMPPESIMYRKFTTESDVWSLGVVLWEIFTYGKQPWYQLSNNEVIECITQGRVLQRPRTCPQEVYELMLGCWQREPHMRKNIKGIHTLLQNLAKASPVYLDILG

B1: S50C: single cysteine mutant of mature human NT-4/5, serine 50 to cysteine (protein)
chain: GVSETAPASRRGELAVCDAVSGWVTDRRTAVDLRGREVEVLGEVPAAGGCPLRQYFFETRCKADNAEEGGPGAGGGGCRGVDRRHWVSECKAKQSYVRALTADAQGRVGWRWIRIDTACVCTLLSRTGRA
For B1, the “functional binding with TrkB in the KIRA assay” value (from here on “functional binding with TrkB”) (human TrkB) was “found possible”.

B2: NT4 (protein)
chain: B1 chain with C50S
For B2, the “non-fasting blood triglyceride level” value ([1]; 0.1 mg/kg s.c. daily, Day 1 (baseline)) was 291.7, the “non-fasting blood triglyceride level” value ([1]; 0.1 mg/kg s.c. daily, Day 10) was 172.7 and the “non-fasting blood triglyceride level” value ([1]; 0.3 mg/kg s.c. daily, Day 1 (baseline)) was 279.3. The “non-fasting blood triglyceride level” value ([1]; 0.3 mg/kg s.c. daily, Day 10) was 208.0, the “non-fasting blood triglyceride level” value ([1]; 1 mg/kg s.c. daily, Day 1 (baseline)) was 307.7 and the “non-fasting blood triglyceride level” value ([1]; 1 mg/kg s.c. daily, Day 10) was 226.3. For the same molecule, the “non-fasting blood triglyceride level” value ([1]; 3 mg/kg s.c. daily, Day 1 (baseline)) was 306.1, the “non-fasting blood triglyceride level” value ([1]; 3 mg/kg s.c. daily, Day 10) was 226.3 and the body weight ([2]; 0.1 mg/kg s.c., Day 1) was 100.0. The body weight ([2]; 0.1 mg/kg s.c., Day 2) was 97.7, the body weight ([2]; 0.1 mg/kg s.c., Day 3) was 100.0 and the body weight ([2]; 0.1 mg/kg s.c., Day 4) was 102.2. The body weight ([2]; 0.1 mg/kg s.c., Day 5) was 104.5, the body weight ([2]; 0.1 mg/kg s.c., Day 8) was 102.2 and the body weight ([2]; 0.1 mg/kg s.c., Day 9) was 102.8. For the same molecule, the body weight ([2]; 0.1 mg/kg s.c., Day 10) was 103.3, the body weight ([2]; 0.1 mg/kg s.c., Day 11) was 105.1 and the body weight ([2]; 0.3 mg/kg s.c., Day 1) was 100.0. It also gave a body weight ([2]; 0.3 mg/kg s.c., Day 2) of 98.3, a body weight ([2]; 0.3 mg/kg s.c., Day 3) of 98.9 and a body weight ([2]; 0.3 mg/kg s.c., Day 4) of 100.6. It also gave a body weight ([2]; 0.3 mg/kg s.c., Day 5) of 101.8, a body weight ([2]; 0.3 mg/kg s.c., Day 8) of 101.2 and a body weight ([2]; 0.3 mg/kg s.c., Day 9) of 102.4. For the same molecule, the body weight ([2]; 0.3 mg/kg s.c., Day 10) was 102.9, the body weight ([2]; 0.3 mg/kg s.c., Day 11) was 104.1 and the body weight ([2]; 1 mg/kg s.c., Day 1) was 100.0. For the same molecule, the body weight ([2]; 1 mg/kg s.c., Day 2) was 97.1, the body weight ([2]; 1 mg/kg s.c., Day 3) was 94.8 and the body weight ([2]; 1 mg/kg s.c., Day 4) was 98.2. The body weight ([2]; 1 mg/kg s.c., Day 5) was 99.2, the body weight ([2]; 1 mg/kg s.c., Day 8) was 97.7 and the body weight ([2]; 1 mg/kg s.c., Day 9) was 97.6. For the same molecule, the body weight ([2]; 1 mg/kg s.c., Day 10) was 97.6, the body weight ([2]; 1 mg/kg s.c., Day 11) was 99.0 and the body weight ([2]; 3 mg/kg s.c., Day 1) was 100.0. The body weight ([2]; 3 mg/kg s.c., Day 2) was 95.6, the body weight ([2]; 3 mg/kg s.c., Day 3) was 94.6 and the body weight ([2]; 3 mg/kg s.c., Day 4) was 94.6. The body weight ([2]; 3 mg/kg s.c., Day 5) was 94.6, the body weight ([2]; 3 mg/kg s.c., Day 8) was 92.2 and the body weight ([2]; 3 mg/kg s.c., Day 9) was 92.2. It also gave a body weight ([2]; 3 mg/kg s.c., Day 10) of 92.7, a body weight ([2]; 3 mg/kg s.c., Day 11) of 92.6 and a food intake ([3]; 0.1 mg/kg s.c., Day 1) of 5.17. The food intake ([3]; 0.1 mg/kg s.c., Day 2) was 5.50, the food intake ([3]; 0.1 mg/kg s.c., Day 3) was 5.83 and the food intake ([3]; 0.1 mg/kg s.c., Day 4) was 6.00. It also gave a food intake ([3]; 0.1 mg/kg s.c., Day 5) of 5.50, a food intake ([3]; 0.1 mg/kg s.c., Day 8) of 4.50 and a food intake ([3]; 0.1 mg/kg s.c., Day 9) of 4.83. It also gave a food intake ([3]; 0.1 mg/kg s.c., Day 10) of 5.00, a food intake ([3]; 0.3 mg/kg s.c., Day 1) of 5.32 and a food intake ([3]; 0.3 mg/kg s.c., Day 2) of 5.67. The food intake ([3]; 0.3 mg/kg s.c., Day 3) was 5.33, the food intake ([3]; 0.3 mg/kg s.c., Day 4) was 5.67 and the food intake ([3]; 0.3 mg/kg s.c., Day 5) was 4.83. For the same molecule, the food intake ([3]; 0.3 mg/kg s.c., Day 8) was 4.33, the food intake ([3]; 0.3 mg/kg s.c., Day 9) was 4.50 and the food intake ([3]; 0.3 mg/kg s.c., Day 10) was 4.67. The food intake ([3]; 1 mg/kg s.c., Day 1) was 5.07, the food intake ([3]; 1 mg/kg s.c., Day 2) was 5.43 and the food intake ([3]; 1 mg/kg s.c., Day 3) was 4.86. It also gave a food intake ([3]; 1 mg/kg s.c., Day 4) of 4.71, a food intake ([3]; 1 mg/kg s.c., Day 5) of 4.43 and a food intake ([3]; 1 mg/kg s.c., Day 8) of 3.93. For the same molecule, the food intake ([3]; 1 mg/kg s.c., Day 9) was 4.00, the food intake ([3]; 1 mg/kg s.c., Day 10) was 4.14 and the food intake ([3]; 3 mg/kg s.c., Day 1) was 5.13. The food intake ([3]; 3 mg/kg s.c., Day 2) was 4.86, the food intake ([3]; 3 mg/kg s.c., Day 3) was 4.29 and the food intake ([3]; 3 mg/kg s.c., Day 4) was 4.29. It also gave a food intake ([3]; 3 mg/kg s.c., Day 5) of 4.00, a food intake ([3]; 3 mg/kg s.c., Day 8) of 3.86 and a food intake ([3]; 3 mg/kg s.c., Day 9) of 3.57. For the same molecule, the food intake ([3]; 3 mg/kg s.c., Day 10) was 3.86.

B3: Pegylated NT-4/5(E67C): NT-4/5 with glutamic acid 67 changed to cysteine, pegylated with mPEG-maleimide (10,000 Da) (conjugate)
chain: B1 chain with C50S, E67C
In the case of B3, the “receptor tyrosine phosphorylation of TrkB-expressing cell line” value (human TrkB) is reported as “active in activating TrkB receptor”.

B4: Q105C: single cysteine mutant of mature human NT-4/5 at position 105 (protein)
chain: B1 chain with C50S, Q105C
In the case of B4, the “functional binding with TrkB” value (human TrkB) is reported as “found possible”.

B5: E67C: single cysteine mutant of mature human NT-4/5, glutamic acid 67 to cysteine (protein)
chain: B1 chain with C50S, E67C
With B5 the “functional binding with TrkB” value (human TrkB) was “found possible”.
